The target of assay [1] is T1, human ROR1 expressed on cells (human, UniProt Q01973 30-937).
T1 construct: whole, on cells; One molecule for cell-surface ROR1 on all cell lines; the cell line is named under assay; also called hROR1; plasma membrane human ROR1
Kind of assay: flow cytometry, MDA-MB-231 cells, 1 mg/ml hSA. For orientation: Flow cytometry measures light scatter and fluorescence of single cells or particles in a stream.

For assay [2], the target named is T2, recombinant human CD3 epsilon extra-cellular domain protein (His-Tag, SinoBiological) (human, UniProt P07766 23-126).
T2 construct: extracellular domain; Bought; also called hCD3ε; human CD3ε; not shown: His tag
As to the kind of experiment: SPR; hCD3ε immobilized, two-state fit (ka1). (SPR reads the build-up and loss of mass on a sensor chip optically.)

Assay [3] addresses T3, human serum albumin (Sigma-Aldrich A3782) (human, UniProt P02768 25-609).
T3 construct: also called hSA; HSA
Kind of assay: SPR; hSA immobilized, pH 5.5.

The target in assay [4] is T1, human ROR1 expressed on cells. Kind of assay: flow cytometry, MDA-MB-231 cells, 1 mg/ml hSA. The source holds these as a separate data set.
For assay [5], the target named is T2, recombinant human CD3 epsilon …. As to the kind of experiment: SPR; hCD3ε immobilized, two-state fit (kd1).
The target of assay [6] is T4, recombinant human ROR1 protein (Fc-Tag, Acro Biosystems RO1-H5250) (human, UniProt Q01973 30-406).
T4 construct: Bought; also called hROR1; recombinant human ROR1 ECD; not shown: Fc tag
As to the kind of experiment: SPR; hROR1-Fc immobilized.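 Note: biacore T200 SPR with ROR1 covalently coupled to a CM5 chip, analyte titration series, apparent rate and equilibrium constants fitted with a 1:1 Langmuir model.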

The target in assay [7] is T2, recombinant human CD3 epsilon …. As to the kind of experiment: SPR; hCD3ε immobilized, two-state fit.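 Note: biacore T200 measurement with target covalently coupled to a CM5 chip, antibody constructs injected as analyte over a concentration series, constants derived in Biacore Evaluation software 3.2.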
For assay [8], the target named is T1, human ROR1 expressed on cells. As to the kind of experiment: cell-based or functional assay.
The target is the same in assay [9]. Kind of assay: cell-based or functional assay. This is another data set of the same source.
The target is the same in assay [10]. Kind of assay: cell-based or functional assay. The source holds these as a separate data set.
The target is the same in assay [11]. Kind of assay: cell-based or functional assay. The source holds these as a separate data set.

Experimental findings from patent US20240392003A1 (NUMAB THERAPEUTICS, published 2024) are described below.

Where two headings read alike, the source gives them in different places.

B1: PRO2658 (bispecific antibody)
chain 1: AQQLTQSPSSLSASVGDRVTITCQASQNVWNNNYLSWFQQKPGKPPKLLIVTASTLASGVSSRFSGSGSGTDFTLTISSLQPEDFATYYCAGGFSGEIRAFGTGTKVTVLGGGGGSGGGGSGGGGSGGGGSQSQLVESGGGLVQPGGSLRLSCAVSGLSLSRNAMSWVRQAPGKGLEWIGIILTSGSTYYASWAKGRFTISKDNSKNTVYLQMNSLRAEDTAVYFCVRGIASSSLKSFWGQGTLVTVSSGGGGSGGGGSAFELTQSPSSLSASVGDRVTITCQASESINSRLAWYQQKPGQPPKLLIYDASDLTSGVPSRFSGSGSGTDFTLTISSLQPEDFATYYCQGYGGSSTTTFGCGTKLTVLGGGSGGSDIQMTQSPSSLSASVGDRVTITCQSSQSVFSNNYLAWFQQKPGQSPKRLIYSASTLASGVPSRFSGSGSGTDFTLTISSLQPEDFATYYCLGSYACSSADCYVFGTGTKVTVLG
chain 2: AQQLTQSPSSLSASVGDRVTITCQASQNVWNNNYLSWFQQKPGKPPKLLIVTASTLASGVSSRFSGSGSGTDFTLTISSLQPEDFATYYCAGGFSGEIRAFGTGTKVTVLGGGGGSGGGGSGGGGSGGGGSQSQLVESGGGLVQPGGSLRLSCAVSGLSLSRNAMSWVRQAPGKGLEWIGIILTSGSTYYASWAKGRFTISKDNSKNTVYLQMNSLRAEDTAVYFCVRGIASSSLKSFWGQGTLVTVSSGGGGSGGGGSEVQLVESGGGLVQPGGSLRLSCAASGFSLSSYDMSWVRQAPGKGLAWIGASYASGPTYYASWAKGRFTISRDNSKNTVYLQMNSLRAEDTATYFCARGGWTGTSHSNIWGQGTLVTVSSGGGSGGGSGGGSGEVQLVESGGGLVQPGGSLRLSCAASGFSLSSYAMNWVRQAPGKCLEWIGHINAGDIAYYATWAKGRFTISRDNSKNTVYLQMNSLRAEDTAVYFCARGAGGFSTGPFKLWGQGTLVTVSS
notes: heterodimeric MATCH4
For the molecule B1, the binding result in assay [1] is given as “binds”.

B2: PRO2286 (bispecific antibody)
chain: DVVMTQSPSSLSASVGDRVTITCQASQIISSRSAWYQQKPGQPPKLLIYQASKLASGVPSRFSGSGSGTDFTLTISSLQPEDFATYYCQCTYIDSNFGAFGCGTKLTVLGGGGGSEVQLVESGGGLVQPGGSLRLSCAASGFSLSSYDMSWVRQAPGKGLAWIGASYASGPTYYASWAKGRFTISRDNSKNTVYLQMNSLRAEDTATYFCARGGWTGTSHSNIWGQGTLVTVSSGGGGSGGGGSGGGGSGGGGSDIQMTQSPSSLSASVGDRVTITCQSSQSVFSNNYLAWFQQKPGQSPKRLIYSASTLASGVPSRFSGSGSGTDFTLTISSLQPEDFATYYCLGSYACSSADCYVFGTGTKVTVLGGGGGSEVQLVESGGGLVQPGGSLRLSCAASGFSFSSSYWICWVRQAPGKCLEWVGCVFTGDGTTYYASWAKGRFTISRDNSKNTVYLQMNSLRAEDTATYFCARPVSVYYYGMDLWGQGTLVTVSSGGGGSGGGGSAQQLTQSPSSLSASVGDRVTITCQASQNVWNNNYLSWFQQKPGKPPKLLIVTASTLASGVSSRFSGSGSGTDFTLTISSLQPEDFATYYCAGGFSGEIRAFGTGTKVTVLGGGGGSGGGGSGGGGSGGGGSQSQLVESGGGLVQPGGSLRLSCAVSGLSLSRNAMSWVRQAPGKGLEWIGIILTSGSTYYASWAKGRFTISKDNSKNTVYLQMNSLRAEDTAVYFCVRGIASSSLKSFWGQGTLVTVSS
notes: trispecific anti-ROR1 x hSA x CD3 scMATCH3, single chain; also called 23-13-A01-sc02 diS scDb-o/28-21-D09-sc04 scDb-i/55-39-G02-sc02-scFv
Broadly, the kon is a measure of how fast the partners come together. What is called Kd is the concentration at which binding is half-saturated. Broadly, the koff is the rate constant with which the complex falls apart. The EC50 is the concentration that produces a half-maximal response. Regarding B2, the kon in assay [2] is 1.1e+06 M⁻¹ s⁻¹. Moreover, in assay [3], the equilibrium dissociation constant (Kd) stood at 0.062 nM, the koff came out at 6.7e-05 s⁻¹ and the kon stood at 1.1e+06 M⁻¹ s⁻¹. In addition, in assay [4], the concentration giving a half-maximal response (EC50) was determined as 1.33 nM and the “Rel. maximum binding (MFIscMATCH3/MFIPRO2213)” value was found to be 1.87. Besides, the koff in assay [5] is 0.0027 s⁻¹. The “fold lower EC50 binding than parental scFv PRO2062” value in assay [1] was approximately 5 fold. In assay [6], the dissociation constant (Kd) amounted to 0.33 nM, the off-rate constant (koff) amounted to 0.00045 s⁻¹ and the kon turned out to be 1.4e+06 M⁻¹ s⁻¹. Moreover, in assay [7], the Kd was 1.5 nM, the ka2 came to 0.00069 s⁻¹ and the kd2 came to 0.0011 s⁻¹.

B3: PRO2287 (bispecific antibody)
chain: DIQMTQSPSSLSASVGDRVTITCQSSESVYSNNQLSWYQQKPGQPPKLLIYDASDLASGVPSRFSGSGSGTDFTLTISSLQPEDFATYYCAGGFSSSSDTAFGCGTKLTVLGGGGGSEVQLVESGGGLVQPGGSLRLSCAASGFSLSSYDMSWVRQAPGKGLAWIGASYASGPTYYASWAKGRFTISRDNSKNTVYLQMNSLRAEDTATYFCARGGWTGTSHSNIWGQGTLVTVSSGGGGSGGGGSGGGGSGGGGSDIQMTQSPSSLSASVGDRVTITCQSSQSVFSNNYLAWFQQKPGQSPKRLIYSASTLASGVPSRFSGSGSGTDFTLTISSLQPEDFATYYCLGSYACSSADCYVFGTGTKVTVLGGGGGSEVQLVESGGGLVQPGGSLRLSCAASGFSLSSNAMGWVRQAPGKCLEYIGIISVGGFTYYASWAKGRFTISRDNSKNTVYLQMNSLRAEDTATYFCARDRHGGDSSGAFYLWGQGTLVTVSSGGGGSGGGGSAQQLTQSPSSLSASVGDRVTITCQASQNVWNNNYLSWFQQKPGKPPKLLIVTASTLASGVSSRFSGSGSGTDFTLTISSLQPEDFATYYCAGGFSGEIRAFGTGTKVTVLGGGGGSGGGGSGGGGSGGGGSQSQLVESGGGLVQPGGSLRLSCAVSGLSLSRNAMSWVRQAPGKGLEWIGIILTSGSTYYASWAKGRFTISKDNSKNTVYLQMNSLRAEDTAVYFCVRGIASSSLKSFWGQGTLVTVSS
notes: trispecific anti-ROR1 x hSA x CD3 scMATCH3, single chain; also called 19-01-H04-sc02/3 diS scDb-o/28-21-D09-sc04 scDb-i/55-39-G02-sc02 scFv
In the case of B3, the association rate constant (kon) in [2] came out at 870000 M⁻¹ s⁻¹. Besides, in [4], it took 1.83 nM to reach a half-maximal effect (EC50) and the “Rel. maximum binding (MFIscMATCH3/MFIPRO2213)” value is 1.98. Moreover, the koff in assay [5] was 0.0034 s⁻¹. Moreover, the “fold lower EC50 binding than parental scFv PRO2062” value in assay [1] was approximately 5 fold. Further, in assay [6], the dissociation constant Kd was found to be 0.32 nM, the koff is 0.0004 s⁻¹ and the kon stood at 1.3e+06 M⁻¹ s⁻¹. Besides, in assay [7], the Kd was 2.1 nM, the ka2 is 0.0017 s⁻¹ and the kd2 came to 0.002 s⁻¹.

B4: PRO2510 (bispecific antibody)
chain: AFELTQSPSSLSASVGDRVTITCQASESINSRLAWYQQKPGQPPKLLIYDASDLTSGVPSRFSGSGSGTDFTLTISSLQPEDFATYYCQGYGGSSTTTFGCGTKLTVLGGGGGSEVQLVESGGGLVQPGGSLRLSCAASGFSLSSYDMSWVRQAPGKGLAWIGASYASGPTYYASWAKGRFTISRDNSKNTVYLQMNSLRAEDTATYFCARGGWTGTSHSNIWGQGTLVTVSSGGGGSGGGGSGGGGSGGGGSDIQMTQSPSSLSASVGDRVTITCQSSQSVFSNNYLAWFQQKPGQSPKRLIYSASTLASGVPSRFSGSGSGTDFTLTISSLQPEDFATYYCLGSYACSSADCYVFGTGTKVTVLGGGGGSEVQLVESGGGLVQPGGSLRLSCAASGFSLSSYAMNWVRQAPGKCLEWIGHINAGDIAYYATWAKGRFTISRDNSKNTVYLQMNSLRAEDTAVYFCARGAGGFSTGPFKLWGQGTLVTVSSGGGGSGGGGSAQQLTQSPSSLSASVGDRVTITCQASQNVWNNNYLSWFQQKPGKPPKLLIVTASTLASGVSSRFSGSGSGTDFTLTISSLQPEDFATYYCAGGFSGEIRAFGCGTKVTVLGGGGGSGGGGSGGGGSGGGGSQSQLVESGGGLVQPGGSLRLSCAVSGLSLSRNAMSWVRQAPGKCLEWIGIILTSGSTYYASWAKGRFTISKDNSKNTVYLQMNSLRAEDTAVYFCVRGIASSSLKSFWGQGTLVTVSS
notes: trispecific anti-ROR1 x hSA x CD3 scMATCH3, single chain; also called 19-04-A10-sc06 scDb-o/28-21-D09-sc04 scDb-i/55-39-G02-sc05-scFv
On to B4, for which, in assay [2], the kon turned out to be 1e+06 M⁻¹ s⁻¹. Also, in assay [4], the EC50 amounted to 1.36 nM and the “Rel. maximum binding (MFIscMATCH3/MFIPRO2213)” value amounted to 2.61. Besides, in assay [8], the “Avg. % max. CD4 T cell act. (JIMT-1)” value is 68%, the “Avg. % max. CD4 T cell act. (MDA-MB-231)” value came to 82%, the “Avg. % max. CD4 T cell act. (SKOV3)” value is 87.3% and the “Avg. EC50 (nM) CD4 T cell act. (JIMT-1)” value is 0.8 nM. Moreover, in assay [8], the “Avg. EC50 (nM) CD4 T cell act. (MDA-MB-231)” value amounted to 0.036 nM and the “Avg. EC50 (nM) CD4 T cell act. (SKOV3)” value came out at 0.13 nM. Besides, in [9], the “Avg. % max. lysis (JIMT-1)” value is 72.1%, the “Avg. % max. lysis (MDA-MB-231)” value was 65.5%, the “Avg. % max. lysis (SKOV3)” value worked out at 83.1% and the “Avg. EC50 (nM) CD8 T cell act. (MDA-MB-231)” value came to 0.087 nM. Moreover, in [9], the “Avg. EC50 (nM) CD8 T cell act. (SKOV3)” value was 0.19 nM, the “Avg. EC50 (nM) Cytotoxicity (JIMT-1)” value came to 1.1 nM, the “Avg. EC50 (nM) Cytotoxicity (MDA-MB-231)” value came to 0.14 nM and the “Avg. EC50 (nM) Cytotoxicity (SKOV3)” value turned out to be 0.25 nM. For the same molecule, in assay [5], the off-rate constant (koff) is 0.0036 s⁻¹. For the same molecule, in assay [6], the equilibrium dissociation constant (Kd) is 0.46 nM, the koff was determined as 0.0006 s⁻¹ and the kon came out at 1.3e+06 M⁻¹ s⁻¹. Further, in assay [10], the “Avg. % max. CD8 T cell act. (JIMT-1)” value was found to be 47.6%, the “Avg. % max. CD8 T cell act. (MDA-MB-231)” value was found to be 70.4%, the “Avg. % max. CD8 T cell act. (SKOV3)” value was 79.3% and the “Avg. EC50 (nM) CD8 T cell act. (JIMT-1)” value is 1.1 nM. In addition, in assay [10], the “Avg. EC50 (nM) CD8 T cell act. (MDA-MB-231)” value is 0.087 nM and the “Avg. EC50 (nM) CD8 T cell act. (SKOV3)” value was 0.19 nM. Moreover, the “EC50 (nM) Cytotoxicity (MDA-MB-231)” value in assay [11] was 0.43 nM. Further, in assay [7], the Kd stood at 2.1 nM, the ka2 was found to be 0.0013 s⁻¹ and the kd2 was 0.002 s⁻¹.
